One assay concerns PBMC. The experiment in a line: Mixed lymphocyte reaction (MLR): inhibition of proliferation of stimulated PBMC by TIRC7 derived peptides. Format: cell-based. Conditions: mitomycin-inactivated PBMC (stimulator), CFSE-stained PBMC (responder), 6 days incubation with peptide in PBS, pH 7.3. The protocol:
As described in Example 1 herein, peptides were tested for their ability to inhibit proliferation of mitomycin-stimulated PBMCs.
Freshly isolated PBMC were inactivated with mitomycin (stimulator), or stained with CFSE (responder). Cells were incubated for 6 days with the peptides as described in FIG. 1, dissolved in PBS and titrated to pH 7.3. Subsequently, an in vitro assay, mixed lymphocyte reaction (MLR), was performed essentially as described in international applications WO99/11782 and WO03/025000 to analyze the potency of the tested TIRC7 derived peptides to inhibit the immune response. For all peptides shown in FIG. 1 substantial inhibition of proliferation could be observed.

The subject of a further assay is activated T-cells. Particulars: dose dependent, cited from earlier work.

We go through 3 molecules from patent publication US9096654B2, “Peptides capable of modulating the function of TIRC7” (CELLACT PHARMA GMBH, priority 2005, dated 2015).

With “D46M: synthetic peptide derived from the third extracellular domain of TIRC7 protein (SEQ ID NO: 3, FIG. 1) (DRQEENKAGLLDLPDASVNGWSSDEEKAGGLDDEEEAELVPSEVLM; TIRC7 peptide)”, the inhibition of proliferation entry in the assay with PBMC was “Particular advantageous”.

B1: A61V: synthetic peptide derived from the third extracellular domain of TIRC7 protein (SEQ ID NO: 4, FIG. 1) (peptide)
chain: ADRQEENKAGLLDLPDASVNGWSSDEEKAGGLDDEEEAELVPSEVLMHQAIHTIEFCLGCV
modifications: TIRC7 peptide
In the case of B1, in the assay with PBMC, the inhibition of proliferation result was “Particular advantageous”.

B2: TIRC7: in vitro translated T-cell immune response cDNA 7 protein, involved in signal transduction of T-cell activation and/or proliferation (protein, UniProt Q13488 1-830, looked up)
V-type proton ATPase 116 kDa …: MGSMFRSEEVALVQLFLPTAAAYTCVSRLGELGLVEFRDLNASVSAFQRRFVVDVRRCEELEKTFTFLQEEVRRAGLVLPPPKGRLPAPPPRDLLRIQEETERLAQELRDVRGNQQALRAQLHQLQLHAAVLRQGHEPQLAAAHTDGASERTPLLQAPGGPHQDLRVNFVAGAVEPHKAPALERLLWRACRGFLIASFRELEQPLEHPVTGEPATWMTFLISYWGEQIGQKIRKITDCFHCHVFPFLQQEEARLGALQQLQQQSQELQEVLGETERFLSQVLGRVLQLLPPGQVQVHKMKAVYLALNQCSVSTTHKCLIAEAWCSVRDLPALQEALRDSSMEEGVSAVAHRIPCRDMPPTLIRTNRFTASFQGIVDAYGVGRYQEVNPAPYTIITFPFLFAVMFGDVGHGLLMFLFALAMVLAENRPAVKAAQNEIWQTFFRGRYLLLLMGLFSIYTGFIYNECFSRATSIFPSGWSVAAMANQSGWSDAFLAQHTMLTLDPNVTGVFLGPYPFGIDPIWSLAANHLSFLNSFKMKMSVILGVVHMAFGVVLGVFNHVHFGQRHRLLLETLPELTFLLGLFGYLVFLVIYKWLCVWAARAASAPSILIHFINMFLFSHSPSNRLLYPRQEVVQATLVVLALAMVPILLLGTPLHLLHRHRRRLRRRPADRQEENKAGLLDLPDASVNGWSSDEEKAGGLDDEEEAELVPSEVLMHQAIHTIEFCLGCVSNTASYLRLWALSLAHAQLSEVLWAMVMRIGLGLGREVGVAAVVLVPIFAAFAVMTVAILLVMEGLSAFLHALRLHWVEFQNKFYSGTGYKLSPFTFAATDD
modifications: TIRC7 in vitro translated
For B2, the “suppression of proliferation of activated T-cells in MLR” value with activated T-cells (MLR) is “significantly suppressed”. Also, in the assay with activated T-cells (in response to alloactivation in a mixed lymphocyte culture or in response to mitogens), the “suppression of proliferation of T-cells” value is “efficiently suppress”.
